T1: pro-heparanase (H60) (Homo sapiens, UniProt Q9Y251, K307R)
T1 sequence (Q9Y251 36-543 K307R): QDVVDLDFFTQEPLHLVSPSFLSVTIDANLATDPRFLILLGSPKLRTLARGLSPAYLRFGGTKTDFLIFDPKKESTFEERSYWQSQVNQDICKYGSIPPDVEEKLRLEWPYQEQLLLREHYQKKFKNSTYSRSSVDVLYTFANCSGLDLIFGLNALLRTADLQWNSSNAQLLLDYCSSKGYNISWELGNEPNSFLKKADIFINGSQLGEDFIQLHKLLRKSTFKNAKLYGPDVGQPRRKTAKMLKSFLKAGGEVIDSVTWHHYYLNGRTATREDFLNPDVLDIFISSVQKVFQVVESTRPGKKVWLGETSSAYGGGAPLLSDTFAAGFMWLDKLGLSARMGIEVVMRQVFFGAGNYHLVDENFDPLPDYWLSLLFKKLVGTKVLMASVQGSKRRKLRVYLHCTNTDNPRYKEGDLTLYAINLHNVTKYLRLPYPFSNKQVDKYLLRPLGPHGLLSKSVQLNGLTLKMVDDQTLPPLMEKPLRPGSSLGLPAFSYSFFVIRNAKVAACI


Molecular target: T1, pro-heparanase (H60)
Test: Circular dichroism spectrometry of pro-heparanase
Design: key to a helix / β strand / β turn / Un-ordered: fraction of secondary structure (0-1)
Settings: fraction of secondary structure of H60
Experimental: Circular Dichroism spectrometry—Circular Dichroism spectra were recorded using a JASCO 500 spetropolarimeter. Far Ultraviolet measurements (260-200 nm) were performed in a 0.1 mm demountable cuvette at 25° C., scanning at a rate of 10 nm/min. Pro-heparanase was assayed at a concentration of 0.72 mg/ml in 20 mM sodium phosphate buffer pH 6.8 supplemented with 300 mM NaCl. Effect of heparin on pro-heparanase spectra was determined at a concentration of 100 μM, and the inhibitor was added at a concentration of 15 μM. Base-line recordings were performed in the presence and absence of heparin to correct the pro-heparanase spectra.

Molecule | Un-ordered | a helix | β strand | β turn
H60 − heparin: purified 60 kDa pro-heparanase without heparin (protein) QDVVDLDFFTQEPLHLVSPSFLSVTIDANLATDPRFLILLGSPKLRTLARGLSPAYLRFGGTKTDFLIFDPKKESTFEERSYWQSQVNQDICKYGSIPPDVEEKLRLEWPYQEQLLLREHYQKKFKNSTYSRSSVDVLYTFANCSGLDLIFGLNALLRTADLQWNSSNAQLLLDYCSSKGYNISWELGNEPNSFLKKADIFINGSQLGEDFIQLHKLLRKSTFKNAKLYGPDVGQPRRKTAKMLKSFLKAGGEVIDSVTWHHYYLNGRTATREDFLNPDVLDIFISSVQKVFQVVESTRPGKKVWLGETSSAYGGGAPLLSDTFAAGFMWLDKLGLSARMGIEVVMRQVFFGAGNYHLVDENFDPLPDYWLSLLFKKLVGTKVLMASVQGSKRRKLRVYLHCTNTDNPRYKEGDLTLYAINLHNVTKYLRLPYPFSNKQVDKYLLRPLGPHGLLSKSVQLNGLTLKMVDDQTLPPLMEKPLRPGSSLGLPAFSYSFFVIRNAKVAACI | 0.33 | 0.29 | 0.26 | 0.12
H60 + heparin: 60 kDa pro-heparanase in the presence of heparin (protein, UniProt Q9Y251 36-543, looked up, pro-form with heparin, 60 kDa pro-heparanase in the presence of heparin) pro-form: QDVVDLDFFTQEPLHLVSPSFLSVTIDANLATDPRFLILLGSPKLRTLARGLSPAYLRFGGTKTDFLIFDPKKESTFEERSYWQSQVNQDICKYGSIPPDVEEKLRLEWPYQEQLLLREHYQKKFKNSTYSRSSVDVLYTFANCSGLDLIFGLNALLRTADLQWNSSNAQLLLDYCSSKGYNISWELGNEPNSFLKKADIFINGSQLGEDFIQLHKLLRKSTFKNAKLYGPDVGQPRRKTAKMLKSFLKAGGEVIDSVTWHHYYLNGRTATKEDFLNPDVLDIFISSVQKVFQVVESTRPGKKVWLGETSSAYGGGAPLLSDTFAAGFMWLDKLGLSARMGIEVVMRQVFFGAGNYHLVDENFDPLPDYWLSLLFKKLVGTKVLMASVQGSKRRKLRVYLHCTNTDNPRYKEGDLTLYAINLHNVTKYLRLPYPFSNKQVDKYLLRPLGPHGLLSKSVQLNGLTLKMVDDQTLPPLMEKPLRPGSSLGLPAFSYSFFVIRNAKVAACI | 0.3 | 0.44 | 0.26 | 0

— US20050042213A1, “Methods and pharmaceutical compositions for modulating heparanase activation and uses thereof” (InSight Biopharmaceuticals Ltd., priority 2003, published 2005)
